Columns and labels:
[1] = substrate: COc1cc([C@H](O)[C@@H](CO)Oc2ccccc2OC)ccc1O; test: purified protein; type: biochemical, Sphingobium sp. SYK-6; settings: 5 mM NAD+, pH 9.0, 30 °C
[2] = substrate: COc1cc([C@H](O)[C@H](CO)Oc2ccccc2OC)ccc1O; test: purified protein; type: biochemical, Sphingobium sp. SYK-6; settings: 5 mM NAD+, pH 9.0, 30 °C

B1: LigL (Sphingobium sp. SYK-6) (protein)
chain: MDIAGTTAFITGGASGIGFGIAQRLLANGARLVLADIRQDHLDEARQFFEERQQGRNVHTIRLDVSDRAQMAEAARECEAVMGGPDILINNAGIDPSGPFKDATYQDWDYGLAINLMGPINGIMAFTPGMRARGRGGHIVNTASLAGLTPMPSFMAIYATAKAAVITLTETIRDSMAEDNIGVTVLMPGPIKSRIHESGQNRPERFRAGSGLAETEQQLAKRVVADNWMEPTEVGDMIVDAIVHNKLYVSTHGNWRETCEARFQALLDSMPEARPFDFGASLAVPKEEA
notes: synthetic gene in pCPD, C-terminal V. cholerae MARTX cysteine protease domain (CPD)-His tag self-cleaved after a Leu, expressed in E. coli (NEB Express), biological dimer
B1 showed a Km [1] of 20.3 ± 3.2 µM, a Vmax [1] of 21.8 µmol/min/mg and a kcat [1] of 4.9 ± 0.3 s⁻¹. The kcat/Km [1] was 240000 ± 41000 M⁻¹ s⁻¹, the Km [2] was 10.9 ± 0.8 µM and the Vmax [2] was 33.7 µmol/min/mg. The kcat [2] was 7.5 ± 0.1 s⁻¹ and the kcat/Km [2] was 688000 ± 53000 M⁻¹ s⁻¹.

From publication PMC4858972, “Structural and Biochemical Characterization of the Early and Late Enzymes in the Lignin β-Aryl Ether Cleavage Pathway from Sphingobium sp. SYK-6” (The Journal of Biological Chemistry, 2016)
